Neutralization titer of HIV primary isolate (lectin and neutralization titer of HIV primary isolate data for 2 molecules are collected here from patent publication US20150050309A1.

Common to all, as to assay: cell-based or functional assay
The target in experiment [1] is HIV Env of primary isolate 6101 (HIV).
Experiment [2] deals with HIV Env of primary isolate BG1168 (HIV).
In experiment [3] the target is HIV Env of primary isolate DU123 (HIV).
In experiment [4] the target is HIV Env of primary isolate DU422 (HIV).
Experiment [5] has as its target HIV Env of primary isolate SF162 (HIV).
Experiment [6] concerns the target HIV Env of primary isolate TV-1 (HIV).

B1: galanthus nivalis lectin (protein, UniProt P30617 24-128, looked up)
chain: DNILYSGETLSTGEFLNYGSFVFIMQEDCNLVLYDVDKPIWATNTGGLSRSCFLSMQTDGNLVVYNPSNKPIWASNTGGQNGNYVCILQKDRNVVIYGTDRWATG
Consider B1, for which the neutralization titer of HIV primary isolate (lectin at 400 ug/ml) in experiment [1] is 724 titer; in experiment [2], below 20 titer; in experiment [3], above 43700 titer; in experiment [4] it was above 43700 titer; in experiment [5] it was 22400 titer; in experiment [6] it was above 43700 titer.

B2: urtica diotica (UDA) lectin (protein, UniProt P11218 24-112, looked up)
chain: QRCGSQGGGGTCPALWCCSIWGWCGDSEPYCGRTCENKCWSGERSDHRCGAAVGNPPCGQDRCCSVHGWCGGGNDYCSGSKCQYRCSSS
On to B2, for which the neutralization titer of HIV primary isolate in experiment [1] is 428 titer; in experiment [2] it was 190 titer; in experiment [3], 1580 titer; in experiment [4] it was 468 titer; in experiment [5], 467 titer; in experiment [6], 600 titer.
